From patent US20250230247A1 (DREN BIO, published 2025)
One block for each binder: values may come before it.

Legend:
Trop-2 [1] = biological target: T1, Trop-2 (human, UniProt P09758 27-323); assay: flow cytometry on HeLa cells, AF647 goat anti-human secondary, 4PL fit; curve plateaus at about 145,000 MFI at 100-300 nM
T1 construct: whole, on cells; also called Trop-2 on A431, HeLa, BxPC-3, SiHa and Capan-2 cells
T1 sequence (looked up): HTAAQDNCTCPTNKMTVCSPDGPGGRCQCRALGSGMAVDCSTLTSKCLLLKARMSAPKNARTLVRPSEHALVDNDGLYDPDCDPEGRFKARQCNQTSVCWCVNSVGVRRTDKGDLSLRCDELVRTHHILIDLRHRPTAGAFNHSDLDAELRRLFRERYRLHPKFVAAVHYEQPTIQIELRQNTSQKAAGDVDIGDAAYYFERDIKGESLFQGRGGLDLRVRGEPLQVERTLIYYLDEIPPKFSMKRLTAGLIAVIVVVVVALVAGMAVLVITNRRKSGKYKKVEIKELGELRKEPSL
Protocol: (§1) The secondary antibody (AF647 goat Anti-Human) was used for detection by flow cytometry. Binding EC50 was determined using four-parameter logistic (4PL) non-linear regression.

Trop-2 [2] = biological target: T1, Trop-2; assay: flow cytometry on BxPC-3 cells, AF647 goat anti-human secondary, 4PL fit; curve still rising (about 3,500,000 MFI) at the highest concentration, 300 nM
Protocol: as §1

Trop-2 [3] = biological target: T1, Trop-2; assay: flow cytometry on Capan-2 cells, AF647 goat anti-human secondary, 4PL fit; curve reaches about 1,720,000 MFI at 300 nM and starts to flatten
Protocol: as §1

human Dectin-1 isoform A [4] = biological target: T2, human Dectin-1 isoform A (human, UniProt Q9BXN2 1-247); assay: flow cytometry on HEK Blue Dectin 1a cells (MFI)
T2 construct: also called hDectin-1a; Dectin-1 on HEK-Blue hDectin-1a cells
T2 sequence: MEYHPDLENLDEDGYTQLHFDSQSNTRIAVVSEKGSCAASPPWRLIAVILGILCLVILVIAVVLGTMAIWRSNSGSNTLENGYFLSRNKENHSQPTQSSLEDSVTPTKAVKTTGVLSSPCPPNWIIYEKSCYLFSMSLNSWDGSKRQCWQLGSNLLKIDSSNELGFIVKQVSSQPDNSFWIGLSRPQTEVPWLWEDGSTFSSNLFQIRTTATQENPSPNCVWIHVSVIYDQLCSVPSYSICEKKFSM

Trop-2 [5] = biological target: T1, Trop-2; assay: flow cytometry on A431 cells (MFI)
Trop-2 [6] = biological target: T1, Trop-2; assay: flow cytometry on SiHa cells, AF647 goat anti-human secondary, 4PL fit; curve still rising (about 89,000 MFI) at the highest concentration, 300 nM
Protocol: as §1

human Dectin-1 isoform A [7] = biological target: T2, human Dectin-1 isoform A; assay: flow cytometry, HEK-Blue hDectin-1a cells
Protocol: (§2) Binding of Dectin-1 antibodies to Dectin-1 expressing cells Dectin-1 expressing cells (HEK Blue hDectin-1-a, HEK Blue hDectin-1-b, HEK293F hDectin-1 a FL, human monocytes or cyno monocytes) were plated at 1×10⁵-2×10⁵ cells per well in non-tissue culture treated, 96 well V bottom plates. Additionally, human monocytes were incubated in human FcgR blocking antibody (Biolegend, San Diego, CA) for 10 minutes at room temperature to reduce binding of the antibodies to the Fc receptor.
(§3) For detection of mouse primary antibodies, the cells were incubated with a fluorescently labeled AF647 anti-mouse Fc-specific secondary antibody (Jackson Immuno). […] Data acquisition was performed using a CytoFlex flow cytometer (Beckman Coulter, Atlanta, GA) and analyzed using Graphpad Prism 8.4.

human Dectin-1 isoform A [8] = biological target: T2, human Dectin-1 isoform A; assay: flow cytometry on HEK-Blue hDectin-1a cells (summary table)
Protocol: as §2, §3

human Dectin-1 isoform A [9] = biological target: T2, human Dectin-1 isoform A; assay: flow cytometry on HEK293F hDectin-1a FL cells
Protocol: as §2, §3

[10] = biological target: T3, cynomolgus monkey Dectin-1 expressed on monocytes (cynomolgus monkey, UniProt A0A2K5UXY6 35-281); assay: flow cytometry, cynomolgus monocytes
T3 construct: whole, on cells; also called cynomolgus Dectin-1; cyno Dectin-1
T3 sequence: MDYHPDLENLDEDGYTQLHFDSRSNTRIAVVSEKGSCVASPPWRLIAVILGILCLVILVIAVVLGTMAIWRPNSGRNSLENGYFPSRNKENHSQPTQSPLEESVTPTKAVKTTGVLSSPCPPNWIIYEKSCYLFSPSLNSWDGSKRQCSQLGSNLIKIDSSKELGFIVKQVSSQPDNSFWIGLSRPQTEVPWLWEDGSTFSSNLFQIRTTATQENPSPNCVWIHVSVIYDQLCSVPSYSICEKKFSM
Protocol: as §2, §3
The binding was assessed by flow cytometry analysis of cynomolgus monkey monocytes derived from PBMCs.

human Dectin-1 isoform B [11] = biological target: T4, human Dectin-1 isoform B (human, UniProt Q9BXN2 1-247); assay: flow cytometry on HEK-Blue hDectin-1b cells
T4 construct: also called hDectin-1b; Dectin-1 on HEK Blue hDectin-1-b cells
T4 sequence: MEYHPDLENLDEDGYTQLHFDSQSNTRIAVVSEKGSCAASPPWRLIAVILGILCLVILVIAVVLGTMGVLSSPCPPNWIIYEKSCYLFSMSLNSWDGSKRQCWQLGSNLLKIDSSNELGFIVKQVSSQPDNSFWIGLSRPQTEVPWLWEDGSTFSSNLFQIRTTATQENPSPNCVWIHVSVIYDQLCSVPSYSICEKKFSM
Protocol: as §2, §3

human Dectin-1 isoform B [12] = biological target: T4, human Dectin-1 isoform B; assay: flow cytometry on HEK-Blue hDectin-1b cells (summary table)
Protocol: as §2, §3

human Dectin-1 isoform A [13] = biological target: T2, human Dectin-1 isoform A; assay: flow cytometry on HEK293F hDectin-1a FL cells (summary table)
Protocol: as §2, §3

human Dectin-1 isoform A [14] = biological target: T2, human Dectin-1 isoform A; assay: flow cytometry on HEK-Blue hDectin-1a cells
Protocol: as §2, §3

Nectin-4 = biological target: T5, Nectin-4 (UniProt Q96NY8 32-510, limits assumed); assay: flow cytometry on Nectin-4-expressing A431 cells (lower panel), AF647 goat anti-human IgG secondary, 4PL fit; curve still rising (about 92,000 MFI) at 300 nM, no plateau
T5 construct: whole, on cells; also called PVRL4; Nectin-4 on A431 cells
T5 sequence (looked up): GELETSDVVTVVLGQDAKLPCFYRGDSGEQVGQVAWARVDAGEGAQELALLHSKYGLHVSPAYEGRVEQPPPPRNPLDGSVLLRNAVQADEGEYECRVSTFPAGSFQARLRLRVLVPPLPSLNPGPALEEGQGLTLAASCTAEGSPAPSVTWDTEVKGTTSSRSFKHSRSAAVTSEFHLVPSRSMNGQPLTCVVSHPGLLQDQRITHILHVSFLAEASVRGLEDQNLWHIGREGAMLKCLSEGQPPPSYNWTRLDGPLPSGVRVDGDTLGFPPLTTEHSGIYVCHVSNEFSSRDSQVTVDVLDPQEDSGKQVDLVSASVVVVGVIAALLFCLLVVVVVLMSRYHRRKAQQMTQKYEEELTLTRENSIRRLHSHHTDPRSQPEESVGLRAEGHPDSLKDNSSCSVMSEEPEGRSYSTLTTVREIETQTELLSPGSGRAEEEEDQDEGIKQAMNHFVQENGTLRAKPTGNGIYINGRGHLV
Protocol: The secondary antibody (AF647 goat Anti-human IgG) was used for detection by flow cytometry. Binding EC50 values were determined using four parameter logistic (4PL) non-linear regression.

B1: 2M24/Trop-2 hIgG1 bispecific antibody (bispecific antibody, V domains shown)
VH 1: QVQLVQSGAEVKKPGASVKVSCKSSGYTFTDYYIHWVRQAPGQGLEWMGWINPNSGDTNYAQKFQGRITMTRDTSISTAYLELSRLRSDDTAVFYCARNSGSYSFGYWGQGTLVTVSS
VL 1: DIQMTQSPSSVSASVGDRVTITCRASQGISSWLAWYQQKPGKAPKLLIFGASSLQSGVPSRFSGSGSGTDFTLTVSSLQPEDFATYYCQQAYSFPFTFGPGTKVDIE
VH 2: QVQLQQSGSELKKPGASVKVSCKASGYTFTNYGMNWVKQAPGQGLKWMGWINTYTGEPTYTDDFKGRFAFSLDTSVSTAYLQISSLKADDTAVYFCARGGFGSSYWYFDVWGQGSLVTVSS
VL 2: DIQLTQSPSSLSASVGDRVSITCKASQDVSIAVAWYQQKPGKAPKLLIYSASYRYTGVPDRFSGSGSGTDFTLTISSLQPEDFAVYYCQQHYITPLTFGAGTKVEIK
notes: human IgG1; also called anti-Dectin-1 (2M24)/anti-Trop-2 bispecific antibody
EC50 (Trop-2 [1]): 26.2 nM
EC50 (Trop-2 [2]): 348 nM
EC50 (Trop-2 [3]): 59.4 nM
EC50 (human Dectin-1 isoform A [4]): 0.958 nM
EC50 (Trop-2 [5]): 9.04 nM
EC50 (Trop-2 [6]): 77.4 nM

B4: 2M24/Nectin-4 hIgG1 bispecific antibody (bispecific antibody, V domains shown)
VH 1: B1 VH 1
VL 1: B1 VL 1
VH 2: EVQLVESGGGLVQPGGSLRLSCAASGFTFSSYNMNWVRQAPGKGLEWVSYISSSSSTIYYADSVKGRFTISRDNAKNSLSLQMNSLRDEDTAVYYCARAYYYGMDVWGQGTTVTVSS
VL 2: DIQMTQSPSSVSASVGDRVTITCRASQGISGWLAWYQQKPGKAPKFLIYAASTLQSGVPSRFSGSGSGTDFTLTISSLQPEDFATYYCQQANSFPPTFGGGTKVEIK
notes: human IgG1; DuetMab mutations F126C and C220V (heavy), S121C and C214V (light)
EC50 (Nectin-4): ~32 nM

Further lines, results first:

EC50 (human Dectin-1 isoform A [7]): 1.6 nM
B2: fully human 2M24 anti-Dectin-1 antibody (hIgG4) (antibody, V domains shown)
VH: B1 VH 1
VL: B1 VL 1
notes: human IgG4; also called 2M24 (hIgG4); hIgG4 2M24

EC50 (human Dectin-1 isoform A [8]): 0.4 nM
EC50 (human Dectin-1 isoform A [9]): 1.1 nM
EC50 [10]: 0.3 nM
EC50 (human Dectin-1 isoform B [11]): 1 nM
EC50 (human Dectin-1 isoform B [12]): 1 nM
EC50 (human Dectin-1 isoform A [13]): 1.1 nM
EC50 (human Dectin-1 isoform A [14]): 0.4 nM
B3: anti-human Dectin-1 antibody clone 2M24 (mIgG1) (antibody, V domains shown)
VH: B1 VH 1
VL: B1 VL 1
notes: hybridoma antibody with human variable and mouse constant domains (mIgG1); also called 2M24 clone; mIgG1 2M24
